Reference: patent US20050265995A1 (MUSC FOUNDATION FOR RESEARCH DEVELOPMENT, published 2005)

Molecular target: T1, dipeptidylpeptidase IV (DPPIV) expressed on rat proximal tubular epithelial cells (PTEC) (rat, UniProt P14740 1-767)
T1 construct: whole, on cells; also called K9/9 antigen; glycoprotein expressed on rat glomerular epithelial cells and PTEC
Experiment: in vivo biodistribution of 125I-labelled protein in rats, 48 h after tail vein injection
Experimental: Biodistribution studies were performed using standard procedures for determining tissue distribution of injected radiolabeled proteins (41, 33). […] After 48 h, a blood sample was taken, and major organs were removed, shredded, washed in PBS containing 10 mM EDTA, weighed, and counted. Targeting specificity was determined as percentage of cpm per gram of tissue divided by total injected cpm per gram of body weight.

T1 sequence (P14740 whole entry): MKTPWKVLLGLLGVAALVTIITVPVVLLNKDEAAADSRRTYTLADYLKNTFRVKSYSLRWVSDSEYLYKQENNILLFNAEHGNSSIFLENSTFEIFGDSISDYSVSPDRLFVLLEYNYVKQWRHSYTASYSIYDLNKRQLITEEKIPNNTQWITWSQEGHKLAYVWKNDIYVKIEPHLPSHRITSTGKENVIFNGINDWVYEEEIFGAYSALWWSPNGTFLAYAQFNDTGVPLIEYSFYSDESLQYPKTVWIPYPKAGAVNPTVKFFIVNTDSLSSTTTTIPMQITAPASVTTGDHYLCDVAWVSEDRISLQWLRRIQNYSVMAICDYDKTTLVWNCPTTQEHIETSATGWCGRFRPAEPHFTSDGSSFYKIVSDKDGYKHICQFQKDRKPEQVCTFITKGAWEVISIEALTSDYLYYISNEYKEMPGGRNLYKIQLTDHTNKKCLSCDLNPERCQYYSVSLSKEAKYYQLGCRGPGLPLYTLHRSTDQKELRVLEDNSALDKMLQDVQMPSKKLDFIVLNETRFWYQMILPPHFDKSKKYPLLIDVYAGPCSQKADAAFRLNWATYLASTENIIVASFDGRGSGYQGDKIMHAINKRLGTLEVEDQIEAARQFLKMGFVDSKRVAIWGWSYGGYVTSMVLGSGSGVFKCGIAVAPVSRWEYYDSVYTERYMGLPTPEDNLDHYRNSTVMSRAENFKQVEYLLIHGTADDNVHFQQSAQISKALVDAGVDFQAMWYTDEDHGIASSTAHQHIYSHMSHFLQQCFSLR

- binding result: no binding
B1: soluble untargeted Crry (sCrry) (other, rat, UniProt Q63135 36-482, looked up)
chain: GQCPAPPLFPYAKPINPTDESTFPVGTSLKYECRPGYIKRQFSITCEVNSVWTSPQDVCIRKQCETPLDPQNGIVHVNTDIRFGSSITYTCNEGYRLIGSSSAMCIISDQSVAWDAEAPICESIPCEIPPSIPNGDFFSPNREDFHYGMVVTYQCNTDARGKKLFNLVGEPSIHCTSIDGQVGVWSGPPPQCIELNKCTPPHVENAVIVSKNKSLFSLRDMVEFRCQDGFMMKGDSSVYCRSLNRWEPQLPSCFKVKSCGAFLGELPNGHVFVPQNLQLGAKVTFVCNTGYQLKGNSSSHCVLDGVESIWNSSVPVCEQVICKLPQDMSGFQKGLQMKKDYYYGDNVALECEDGYTLEGSSQSQCQSDASWDPPLPKCVSQVICKLPQDMSGFQKGLQMKKDYYYGDNVALECEDGYTLEGSSQSQCQSDASWDPPLPKCVSRSNSG
modifications: 125I-iodinated in the biodistribution study
notes: extracellular domain; Untargeted control, expressed in Pichia; also called soluble Crry
